B1: mAb 46H02 (antibody, V domains shown)
VH: QVQLVQSGAEVKKPGASVKVSCKASGYTFTGYSMHWVRQAPGQGLEWMGWINPHSGGTNSAQKFQGRVTMTRDTSIGTAYMELNRLRSDDTAVYYCVRDNPITGFDYWGQGTLVTVSS
VL: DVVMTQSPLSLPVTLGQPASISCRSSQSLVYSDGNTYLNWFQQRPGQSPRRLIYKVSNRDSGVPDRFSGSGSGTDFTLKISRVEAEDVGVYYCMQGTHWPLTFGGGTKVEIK
notes: Hybridoma antibody from AlivaMab Mouse; 46H02 has a fully human F(ab)2 (human light chain); also called clone 46H02
B2: mAb 20F08 (antibody, V domains shown)
VH: EVQLVESGGGLVKPGGSLRLSCAASGFIFSNYNINWVRQAPGKGLEWVSCVSRSNYTYYTDSVKGRFTISRDNAKKSLYLQMNSLRAEDTAVYYCARDCGTYGVFDYWGQGTLVTVSS
VL: ETTVTQSPASLSMAIGEKVTIRCITSTDIDDDMNWYQQKPGEPPKLLISEGNILRPGVPSRFSSSGYGTDFVFAIENMLSEDVADYYCLQSDNLPYTFGGGTKLELK
notes: Hybridoma antibody from AlivaMab Mouse; Human HC (chimeric IgH with mouse CH2 and CH3) and murine LC; also called clone 20F08
B3: mAb 12H07 (antibody, V domains shown)
VH: B2 VH
VL: B2 VL
notes: Hybridoma antibody from AlivaMab Mouse; Human HC (chimeric IgH with mouse CH2 and CH3) and murine LC; also called 12H7; clone 12H07
B4: mAb 39F02 (antibody, V domains shown)
VH: EVQLLESGGGLVQPGGSLRLSCAASGFTLSNYAMSWVRQAPGKGLEWVSAISGSGGGTYNADSVKGRFTISRDNSKNTLYLQMNSLRAEDTAVYYCAKEAWISYFDYWGQGTLVTVSS
VL: DIVMSQSPSSLAVSVGEKVTLSCKSSQSLLYGDDQKNYLAWYQQKPGQSPKLLLYWASTWESGVPDRFTGSGSGTDFTLTISSVKAADLAVYYCQQYYSYPWTFGGGTKLEIK
notes: Hybridoma antibody from AlivaMab Mouse; Human HC (chimeric IgH with mouse CH2 and CH3) and murine LC; also called clone 39F02
B5: mAb 38E05 (antibody, V domains shown)
VH: B4 VH
VL: B4 VL
notes: Hybridoma antibody from AlivaMab Mouse; Human HC (chimeric IgH with mouse CH2 and CH3) and murine LC; also called clone 38E05

target: T1, PE labeled Gal-3 (Gal-3-PE) (human, UniProt P17931 1-250, limits assumed, labelled with PE (phycoerythrin; Innova Biosciences kit), sites not stated); assay: blockade of Gal-3-PE binding to OVCAR3 cells by purified antibody, number of Gal-3-PE-bound cells (Mirrorball)
T1 construct: Bought human Gal-3 labelled with PE; also called huGal-3 (Abcam ab89487) labelled with PE
From the text: Reactions to measure binding of Gal-3-PE to OVCAR3 cells were set up in the presence of PBS (negative control), or increasing concentrations of the indicated antibody. Purified antibodies were used in the binding reactions. Shown are the effects of antibody concentration on the extent of inhibition of Gal-3-PE binding to OVCAR3 by antibody clones 20F08 and 12H07 (FIG. 6A), which have the identical sequences, 46H02 (FIG. 6B), clones 38E05 and 39F02 (FIG. 6C), which also have identical sequences, and 14D11.2D3 (FIG. 6D).
An assay for Gal-3-PE binding to cancer cells was developed as a secondary screen. huGal-3 (Abcam ab89487) was labelled with PE (Innova Biosciences) according to manufacturer's instructions. The assay for Gal-3-PE binding to OVCAR3 cells was performed as follows: cultured […] cells were trypsinized and washed with culture medium. 500, 1000 or 2000 cells were incubated with various concentrations of Gal-3-PE. The indicated number of OVCAR3 cells were pipetted into a 96-well plate with the indicated amount of Gal-3-PE and incubated on the bench in the dark for 2 hrs prior to being read on a Mirrorball® device (TTP Labtech). Binding of Gal-3-PE to OVCAR3 cells was detected using the Mirrorball® flow cytometer.
Next, the clones were subjected to determination of dose-response of blockade of Gal-3-PE binding to OVCAR3 cells. […]

T1 sequence (P17931 whole entry): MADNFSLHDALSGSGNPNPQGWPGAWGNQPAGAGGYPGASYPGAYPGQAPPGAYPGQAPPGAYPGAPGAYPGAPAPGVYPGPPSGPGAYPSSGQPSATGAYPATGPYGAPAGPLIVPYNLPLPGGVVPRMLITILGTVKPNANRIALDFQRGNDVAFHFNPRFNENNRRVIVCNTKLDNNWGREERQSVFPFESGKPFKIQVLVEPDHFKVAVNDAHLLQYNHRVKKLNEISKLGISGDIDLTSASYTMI

| Binder | IC50 (read off the curve) [µg/mL] |
| --- | --- |
| B1 | ~1 |

target: T2, mouse Gal-3 (mouse, UniProt P16110 2-264, limits assumed); assay: ELISA on mouse Gal-3 (moGal3)
T2 construct: also called mouse Galectin-3; Lgal3
T2 sequence (P16110 2-264 limits assumed): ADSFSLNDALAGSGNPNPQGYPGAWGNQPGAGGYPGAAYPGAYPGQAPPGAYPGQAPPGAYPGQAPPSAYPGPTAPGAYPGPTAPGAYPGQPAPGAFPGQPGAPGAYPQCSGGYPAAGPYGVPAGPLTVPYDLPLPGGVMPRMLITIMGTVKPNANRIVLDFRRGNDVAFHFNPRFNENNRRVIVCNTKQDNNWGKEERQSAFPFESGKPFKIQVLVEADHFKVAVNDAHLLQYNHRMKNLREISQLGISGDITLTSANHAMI

| Binder | binding result |
| --- | --- |
| B2 | no binding |
| B3 | no binding |

target: T3, human Galectin-3 (LGALS3) (human, UniProt P17931 2-250, limits assumed); assay: ELISA on human Gal-3 (huGal3), one OD450 value per clone
T3 construct: also called human Gal-3; Gal-3
T3 sequence (P17931 2-250 limits assumed): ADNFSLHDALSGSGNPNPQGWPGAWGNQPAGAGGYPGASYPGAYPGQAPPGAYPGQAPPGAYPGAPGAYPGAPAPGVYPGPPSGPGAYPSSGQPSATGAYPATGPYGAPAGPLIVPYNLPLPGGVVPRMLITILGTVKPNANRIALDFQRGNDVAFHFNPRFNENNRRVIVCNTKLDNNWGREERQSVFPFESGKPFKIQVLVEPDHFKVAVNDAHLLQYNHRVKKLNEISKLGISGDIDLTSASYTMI

| Binder | OD450 |
| --- | --- |
| B2 | 0.523 |
| B3 | 1.4 |
| B4 | 0.502 |
| B5 | 0.86 |
| B1 | 2.56 |

target: T2, mouse Gal-3; assay: ELISA on mouse Gal-3 (moGal3), one OD450 value per clone

| Binder | OD450 |
| --- | --- |
| B2 | 0.047 |
| B3 | 0.049 |
| B4 | 0.726 |
| B5 | 1.12 |
| B1 | 1.38 |

target: T3, human Galectin-3 (LGALS3); assay: SPR, increasing concentrations of the mAb
From the text: Clones 46H02 and 20F08 were then subjected to determination of binding parameters using surface plasmon resonance (SPR) in the presence of increasing concentrations of these antibodies.

| Binder | Kd [nM] |
| --- | --- |
| B2 | 44 |
| B1 | 10 |
